Consider three molecules from PMC12742838, “Discovery and structural investigation of Varicella-Zoster virus gE-neutralizing antibodies isolated from a convalescent patient” (Protein & Cell, 2025).

The term Kd denotes a measure of binding affinity in units of concentration.

Assay [1] deals with T1, recombinant soluble insulin-degrading enzyme (rIDE, residues 42-1,019) (UniProt P14735 42-1019).
T1 construct: insulin-degrading enzyme (IDE), cellular receptor of VZV gE, residues 42-1,019; Tags and host are probably in the Supplementary Materials; also called rIDE receptor protein; source: recombinant, purified
The experiment in a line: SPR; dissociation constant of gE to rIDE. The note with it: both partners purified. (In general: SPR reads the build-up and loss of mass on a sensor chip optically.)

Assay [2] deals with T2, Varicella-zoster virus glycoprotein E (gE), recombinant protein, tag not told for these experiments (Varicella-zoster virus, UniProt P09259).
T2 construct: glycoprotein E (gE) of Varicella-zoster virus; Methods are in the Supplementary Materials; also called gE protein
The experiment in a line: cryo-EM structure; ternary complex Fab WLL-1/Fab WLL-28/gE, resolved at 3.36 Å; only the gI-binding domain of gE is seen. The note with it: both partners purified.

B1: Varicella-zoster virus glycoprotein E (gE), recombinant protein, tag not told for these experiments (natural protein)
chain: SVLRYDDFHTDEDKLDTNSVYEPYYHSDHAESSWVNRGESSRKAYDHNSPYIWPRNDYDGFLENAHEHHGVYNQGRGIDSGERLMQPTQMSAQEDLGDDTGIHVIPTLNGDDRHKIVNVDQRQYGDVFKGDLNPKPQGQRLIEVSVEENHPFTLRAPIQRIYGVRYTETWSFLPSLTCTGDAAPAIQHICLKHTTCFQDVVVDVDCAENTKEDQLAEISYRFQGKKEADQPWIVVNTSTLFDELELDPPEIEPGVLKVLRTEKQYLGVYIWNMRGSDGTSTYATFLVTWKGDEKTRNPTPAVTPQPRGAEFHMWNYHSHVFSVGDTFSLAMHLQYKIHEAPFDLLLEWLYVPIDPTCQPMRLYSTCLYHPNAPQCLSHMNSGCTFTSPHLAQRVASTVYQNCEHADNYTAYCLGISHMEPSFGLILHDGGTTLKFVDTPESLSGLYVFVVYFNGHVEAVAYTVVSTVDHFVNAIEERGFPPTAGQPPATTKPKEITPVNPGTSPLLR
notes: glycoprotein E (gE) of Varicella-zoster virus; Methods are in the Supplementary Materials; also called gE protein
For B1, the Kd in assay [1] was ~10 nM.

B2: Fab WLL-1 (Fab, V domains shown)
VH: QITLKESGPTLVKPTQTLTLTCTFSGFSLTNTEMTVGWIRRPPGKALEWLALIYWDDDKRYSPSLRSRLTITKDTSKNQVVLKMTNMDPVDTATYYCARLSLRLLTFDYWGQGTLVTVSS
VL: SYVVTQPPSVSVAPRQTARITCGGSNIGSKSVHWHQQKPGQAPVLVVYDDSDRPSGIPERFSGSNSGNTATLTITRVEAGDEADYYCQVWDSSGDHPLFGGGTKLTVL
In the case of B2, the binding result in assay [2] is recorded as “binds”.

B3: Fab WLL-28 (Fab, V domains shown)
VH: EVQLVQSGAEVKKPGEPLKISCKASGYNFANFWVGWVRQMPGRGLEWMGVIFPADSDTRYSPSFQGQVIISADKSTNTAYLQWSSLKASDSAMYYCARHVRGSLWGGGGYWGQGTLVTVSS
VL: EIVMTQSPSTLSVSPGEGATLSCRASQSVNNDLAWYQQKPGQAPRLLINGASTRATGIPARFTGSGSGTEFTLTISSLQPEDFAVYFCQQYNDWPRTFGQGTKVEIK
B3: in assay [2], the binding result is reported as “binds”.
